This is an account of results in US20260158147A1.

The target in assay [1] is aBeta (UniProt P05067). As to the kind of experiment: ELISA. A general note: ELISA stands for enzyme-linked immunosorbent assay.
The target of assay [2] is aBeta (UniProt P05067). As to the kind of experiment: ELISA; commercial.

As a reminder, the EC50 is the midpoint of the concentration-response curve. Substance Lecanemab (unshuttled) gave a half-maximal effective concentration (EC50) with aBeta [1] of 0.105 nM.

Lecanemab (commercial) gave an EC50 in the assay with aBeta [2] of 0.115 nM.
